For data set [1], the target named is LKB1 (endogenous, in skeletal muscle and 3T3L1 adipocyte extracts) (UniProt Q9WTK7).
Data set [2] has as its system 141 overlapping peptides (12-15 residues in length) corresponding to the LKB1 sequence.
Data set [3] concerns His-LKB1 fusion protein (purified).

Consider Fyn expressed from pcDNA3.1-Fyn-V5, for which the “tyrosine phosphorylation of LKB1 immunoprecipitates from 3T3L1 adipocytes (PY100 immunoblot)” value in data set [1] is recorded as “Immunoblotting of LKB1 immunoprecipitates with the PY100 phosphotyrosine antibody demonstrated Fyn-induced tyrosine phosphorylation of LKB1”. As to “Fyn-CA, constitutively active Fyn mutant (pcDNA3.1-Fyn-CA(Y527F)-V5)”, the “tyrosine phosphorylation of endogenous LKB1 immunoprecipitated from transfected tibialis anterior muscle (PY100 immunoblot)” value in data set [1] was “In the absence of Fyn-CA, there was a relatively low level of LKB1 tyrosine phosphorylation that was significantly increased by the expression of Fyn-CA”.

In the case of “recombinant His-FynT kinase (Calbiochem)”, in data set [2], the “in vitro phosphorylation of an overlapping peptide array (Phosphosite Detector)” value was “This analysis identified five tyrosines (Y60, Y156, Y166, Y261, and Y365) as potential LKB1 phosphorylation acceptor sites for the Fyn kinase”. Besides, in data set [3], the “tyrosine phosphorylation in an in vitro kinase reaction (PY100 phosphotyrosine immunoblot)” value is “purified His-LKB1-tagged fusion protein was tyrosine phosphorylated by purified recombinant Fyn kinase in vitro”.
